Assay results reported in patent US20260116991A1 (HAINAN SIMCERE ZAIMING PHARMACEUTICAL, published 2026).

Legend:
human GPC3-His protein [1] = target: T1, human GPC3-His protein (human, UniProt P51654 25-559); assay: ELISA, coated human GPC3, antibody 10 nM;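 also: plate coated with antigen at 1 µg/mL, antibodies bound 2 h at 37 °C, detected via HRP-conjugated secondary antibody and TMB substrate, absorbance read after acid stop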
T1 construct: Bought protein; also called human GPC3 protein; not shown: His tag

human GPC3-His protein [2] = target: T1, human GPC3-His protein; assay: ELISA, coated human GPC3, antibody 0.01 nM;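 also: Plate-bound antigen coated at 1 µg/mL, antibody incubated 2 h at 37 °C, binding detected by HRP-conjugated secondary antibody with TMB substrate, read as absorbance at 450 nm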
human GPC3-His protein [3] = target: T1, human GPC3-His protein; assay: ELISA, coated human GPC3, antibody 0.001 nM
human GPC3-His protein [4] = target: T1, human GPC3-His protein; assay: ELISA, coated human GPC3, antibody 1 nM;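 also: antigen coated at 1 µg/mL on 96-well plates, antibody bound for 2 h at 37 °C, detected with HRP-labeled secondary antibody and TMB, absorbance read at 450 nm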
[5] = target: T2, human GPC3 on CHO-K1-human GPC3 cells (clone CHOK1-hGPC3.2B5) (human, UniProt P51654 25-554); assay: FACS on CHOK1-hGPC3.2B5 cells;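 also: flow cytometry binding of chimeric antibodies to the cells, read out as mean fluorescence intensity, with the half-maximal concentration derived by curve fitting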
T2 construct: whole, on cells; Stably transfected CHO-K1 clone 2B5
Procedure: (§1) The desired cells were expanded to a logarithmic growth phase in a T-75 cell culture flask, the medium was removed by pipetting, and the cells were washed twice with a PBS buffer, and digested with trypsin. Then a complete medium was added to stop the digestion, and the cells were blown into a single cell suspension. After counting, the cells were centrifuged, and the cell pellet was resuspended with an FACS buffer (PBS+2% fetal bovine serum) to 2×10⁶ cells/mL. The cell resuspension solution was added to a 96-well FACS reaction plate at 50 μl/well, and a chimeric antibody sample to be tested was added at 50 μl/well for incubation at 4° C. for 1 h. […] After the plate was centrifuged and washed 3 times with a PBS buffer, 100 μl of the resulting solution was assayed and analyzed by FACS (FACS Canto™, purchased from BD Biosciences). Data analysis was performed by software (FlowJo) to obtain the mean fluorescence intensity (MFI) of the cells. Then, analysis was performed by software (GraphPad Prism8), data were fitted, and EC₅₀ values were calculated.

human GPC3-His protein [6] = target: T1, human GPC3-His protein; assay: ELISA, coated human GPC3, antibody 0.0001 nM
human GPC3-His protein [7] = target: T1, human GPC3-His protein; assay: ELISA, coated human GPC3, antibody 0.1 nM;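 also: antigen coated on 96-well plates at 1 µg/mL, antibody bound 2 h at 37 °C, detected with HRP-labeled secondary antibody and TMB substrate, acid-stopped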
Procedure: (§2) The specific method is described as follows: The antigen protein was diluted with PBS to a final concentration of 1 μg/mL, and the diluent was added to a 96-well ELISA plate at 50 μL/well. The plate was sealed with a plastic film and incubated at 4° C. overnight, washed twice with PBS the next day, and a blocking solution [PBS+2% (w/w) BSA] was added for blocking at room temperature for 2 h. […] After incubation at 37° C. for 2 h, the plate was washed 3 times with PBS. A horseradish peroxidase (HRP)-labeled secondary antibody (purchased from Merck, Cat. No. AP113P) was added for incubation at 37° C. for 1 h, and the plate was washed 5 times with PBS. A TMB substrate was added at 50 μL/well for incubation at room temperature for 10 min, then a stop solution (1.0M HCl) was added at 50 μL/well. An ELISA plate reader (Multimode Plate Reader, EnSight, purchased from Perkin Elmer) was used to read OD_{450 nm} values, with results as shown in Table 4 to Table 6, FIG. 1A, FIG. 1B, and FIG. 1C.

human GPC3-His protein [8] = target: T1, human GPC3-His protein; assay: ELISA, coated human GPC3, antibody 100 nM;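 also: antibodies bound to antigen-coated 96-well plates (1 µg/mL), 2 h at 37 °C, detected with HRP-labelled secondary antibody and TMB substrate, absorbance read at 450 nm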
Procedure: as §2

[9] = target: T3, GPC3 endogenously expressed on HepG2 cells (UniProt P51654 25-554); assay: FACS on HepG2 cells;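 also: flow cytometric binding of chimeric antibodies to cells, read as mean fluorescence intensity, EC50 obtained by curve fitting of the MFI data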
T3 construct: whole, on cells
Procedure: as §1

Row | Binder | OD450 nm (human GPC3-His protein [1]) | OD450 nm (human GPC3-His protein [2]) | OD450 nm (human GPC3-His protein [3]) | OD450 nm (human GPC3-His protein [4]) | EC50 [5] | Max MFI [5] | OD450 nm (human GPC3-His protein [6]) | OD450 nm (human GPC3-His protein [7]) | OD450 nm (human GPC3-His protein [8]) | EC50 [9] | Max MFI [9]
1 | F2.39.2 human-murine chimeric antibody (antibody, human IgG1, kappa, V domains shown) VH: QVQLQQSGAELVRPGASVKVSCKASGYTFTDYEMHWMKQTPVHGLEWIGANEPETGRSAYDQKFKGKATLTADKSSSTAYMELRSLTSEDSAVYYCTRFYSFAYWGQGTLVTVSA VL: DVVMTQTPLSLPVSLGDQASISCRSSQGLVHNNGNTYLHWYLQKPGQSPKLLIYKVSNRFSGVPDRFSGSGSGTDFTLKISRVEAEDLGVYFCSQNTHVPPTFGGGTKLEIKR | 2.34 OD450 | 0.34 OD450 | 0.12 OD450 | 2.21 OD450 | 1 nM | 26500 MFI | 0.1 OD450 | 1.33 OD450 | 2.3 OD450 | 0.95 nM | 12700 MFI
2 | F3.54.12 human-murine chimeric antibody (antibody, human IgG1, kappa, V domains shown) VH: QVQLQQSGAELVRPGASVKLSCKASGYTFTDYEMHWVKQTPVHGLEWIGAIDPETGNTAYIQKFKGKATLTTDKSSSTAYMELRSLTSEDSAVYYCTRFYSYSHWGQGTTLTVSS VL: DVVMTQTPLSLPVSLGDQASISCRSSQSLVHSNGNTYLHWYLQKPGQSPKLLIYKVSNRFSGVPDRFSGSSSGTDFTLKISRVEAEDLGVYFCSQNTHVPPTFGGGTKLEIKR | 2.41 OD450 | 0.48 OD450 | 0.15 OD450 | 2.29 OD450 | 0.72 nM | 15000 MFI | 0.13 OD450 | 1.58 OD450 | 2.44 OD450 | 0.83 nM | 4460 MFI
3 | F2.92.1 human-murine chimeric antibody (antibody, human IgG1, kappa, V domains shown) VH: QVQLQQSGAELVRPGASVKLSCKASGYIFSDYEIHWVKQTPVHGLECIGAVDPETGGTAYNQKFKGKATLTADKSSSTAYMELRSLTSEDSAVYFCTRFYSFAYWGQGTLVTVST VL: DVVMTQTPLSLPVSLGDQGSISCRSSQSLVHSNGNTYLQWYLQKPGQSPKLLIYKVSNRFSGVPDRFSGSGSGTDFTLKISRVEAEDLGVYFCCQSTHVLPTFGGGTKLEIKR | 2.23 OD450 | 0.32 OD450 | 0.12 OD450 | 2.24 OD450 | 0.92 nM | 29400 MFI | 0.11 OD450 | 1.23 OD450 | 2.45 OD450 | 0.92 nM | 14000 MFI
4 | F2.55.11 human-murine chimeric antibody (antibody, human IgG1, kappa, V domains shown) VH: EVKLVESGGGLVKPGGSLKLSCAASGLTFSTCTMSWVRQTPAKRLEWVATISSGGGNTYYPDSVKGRFTISRDNARNTLYLQMSSLRSEDTAMYYCVRLYYDGSPYAMDYWGQGTSVTVSS VL: DIQMTQTTSSLSASLGDRVTISCRASQDISNHLNWYQQKPDGTVKLLIYYTSRLHSGVPSRFSGSGSGTDYSLTISNLEQEDIATYFCQQDSKPPPTFGSGTKLEIKR | 2.66 OD450 | 0.43 OD450 | 0.15 OD450 | 2.24 OD450 | 0.89 nM | 13600 MFI | 0.11 OD450 | 1.57 OD450 | 2.58 OD450 | 0.66 nM | 1630 MFI
5 | F2.154.1 human-murine chimeric antibody (antibody, human IgG1, kappa, V domains shown) VH: QVQLQQSGAELVRPGASVKLSCKASGYRFTDYEMHWVKQTPVHGLEWIGTIDPETGNTAYTQKFMDKATLTADKSSSTAYMELRSLTSEDSAVYYCTRGYSFTYWGQGTLATVSA VL: DVLMTQTPLSLPVSLGDQASISCRSSQNIVHSNGNTYLQWYLQKPGQSPKLLIFKVSNRFSGVPDRFSGSGSGTDFTLKISRVEAEDLGVYYCFQGSHVPFTFGTGTKLEIKR | 2.52 OD450 | 0.38 OD450 | 0.13 OD450 | 2.31 OD450 | 1.14 nM | 26700 MFI | 0.09 OD450 | 1.57 OD450 | 2.61 OD450 | 0.37 nM | 5450 MFI
6 | F3.81.19 human-murine chimeric antibody (antibody, human IgG1, kappa, V domains shown) VH: QVQLQQSGAELVRPGASVKLSCKASGYTFTDYEMHWVKQTPVHGLEWIGTIDPETGNTAYNQKFKGKATLTADKSSSTAYMELRSLTSEDSAVYYCTRPYSLTYWGQGTLVTVSA VL: DVLLTQTPLSLPVSLGDQASISCRSSQSFVHSNGDTYLQWYLQKPGQSPKLLIYKVSNRFSGVPDRFSGSGSGTDFTLKISRVEAEDLGVYYCFQGSHVPYTFGSGTKLEIKR | 2.49 OD450 | 0.19 OD450 | 0.28 OD450 | 2.04 OD450 | 2.58 nM | 14100 MFI | 0.1 OD450 | 0.87 OD450 | 2.45 OD450 | 2.72 nM | 5740 MFI
7 | F2.152.3 human-murine chimeric antibody (antibody, human IgG1, kappa, V domains shown) VH: EVQLQQSGPELVKPGASVKMSCKASGYTFTDYYMTWVKQSHGKSLEWIGRVNPRNGDTTYNQKFEGRATLTLDKSLSTAFMQLNSLTSEDSAVYYCINSKGHFDYWGQGTTLTVSS VL: DVLMTQTPLSLPVSLGDQASISCRSSQSIVHSNGNTYLEWFLQKPGQSPKSLIYKVSNRFSGVPDRFSGSGSGTDFTLKISRVEAEDLGVYYCFQGSHVPPTFGAGTKLELKR | 2.43 OD450 | 0.32 OD450 | 0.13 OD450 | 2.28 OD450 | 0.73 nM | 2830 MFI | 0.1 OD450 | 1.45 OD450 | 2.43 OD450 | 0.23 nM | 4490 MFI
8 | F3.38.7 human-murine chimeric antibody (antibody, human IgG1, kappa, V domains shown) VH: QVQLQQSGAELVRPGASVKLSCKASGYTFTDYEIHWVKQTPVLGLEWIGAIDPKTGNTAYNQKFMGKATLTADKSSTTAYMDLRSLTSEDSAVYYCTRYFSFAYWGQGTLVTVSA VL: DVLMTQTPLSLPVSLGDQASISCRSSQTFVHSNGNTYLQWYLQKPGQSPKLLIYKVSNRFSGVPDRFSGSGSGTDFTLKISRVEAEDLGVYYCFQGSHVPYTFGSGTKLEIKR | 2.44 OD450 | 0.38 OD450 | 0.13 OD450 | 2.18 OD450 | 0.85 nM | 16200 MFI | 0.09 OD450 | 1.62 OD450 | 2.48 OD450 | 1.2 nM | 4980 MFI
9 | F2.23.8 human-murine chimeric antibody (antibody, human IgG1, kappa, V domains shown) VH: QVQLQQSGAELVRPGASVKLSCKASGYTFTDYEMHWVKQTPVHGLEWFGAIDPETGGTAYNQKFRAKATLTADKSSSTAYMELRSLTSEDSAVYYCTRFYSFAYWGQGTLVTVSA VL: DVVMTQTPLSLPVSLGDQASISCRSSQSLVHSNGNTYLQWYLQKPGQSPKLLIYKVSNRFSGVPDRFSGSGSGTDFTLKITRVEAEDLGVYFCSQSTHVPYTFGSGTKLEIKR | 2.35 OD450 | 0.29 OD450 | 0.12 OD450 | 2.16 OD450 | 1.48 nM | 23200 MFI | 0.1 OD450 | 1.28 OD450 | 2.51 OD450 | 1.64 nM | 11300 MFI
10 | F2.169.2 human-murine chimeric antibody (antibody, human IgG1, kappa, V domains shown) VH: EVQLVETGGGLVQPKGSLKLSCAASGFSFNTNAMNWVRQAPGKGLEWVARIRSKSNNYATYYADSVKDRFTISRDDSQSMLYLQMNNLKTEDTAMYYCVRDGYYVLFAYWGQGTLVTVSA VL: DVLMTQTPLSLPVSLGDQASISCRFSQSIVNSNGNTYLEWFLQKPGQSPKLLIYKVSNRFSGVPDRFSGSGSGTDFTLKISRVEAEDLGVYYCFQGSHVPFTFGTGTKLEIKR | 2.52 OD450 | 0.27 OD450 | 0.11 OD450 | 2.24 OD450 | 1.06 nM | 17300 MFI | 0.1 OD450 | 1.25 OD450 | 2.43 OD450 | 0.65 nM | 3980 MFI
